Results from ChEMBL document CHEMBL1671727, “Expression, purification, and characterization of Aspergillus fumigatus sterol 14-alpha demethylase (CYP51) isoenzymes A and B” (Antimicrob Agents Chemother, 2010).

Substrate: CC(C)=CCC[C@@H](C)[C@H]1CC[C@@]2(C)C3=C(CC[C@]12C)[C@@]1(C)CC[C@H](O)C(C)(C)[C@@H]1CC3
Assay: Activity of Candida albicans CYP51

B1: Lanosterol 14-alpha demethylase (Candida albicans SC5314) (protein)
chain: MAIVETVIDGINYFLSLSVTQQISILLGVPFVYNLVWQYLYSLRKDRAPLVFYWIPWFGSAASYGQQPYEFFESCRQKYGDVFSFMLLGKIMTVYLGPKGHEFVFNAKLSDVSAEDAYKHLTTPVFGKGVIYDCPNSRLMEQKKFAKFALTTDSFKRYVPKIREEILNYFVTDESFKLKEKTHGVANVMKTQPEITIFTASRSLFGDEMRRIFDRSFAQLYSDLDKGFTPINFVFPNLPLPHYWRRDAAQKKISATYMKEIKSRRERGDIDPNRDLIDSLLIHSTYKDGVKMTDQEIANLLIGILMGGQHTSASTSAWFLLHLGEKPHLQDVIYQEVVELLKEKGGDLNDLTYEDLQKLPSVNNTIKETLRMHMPLHSIFRKVTNPLRIPETNYIVPKGHYVLVSPGYAHTSERYFDNPEDFDPTRWDTAAAKANSVSFNSSDEVDYGFGKVSKGVSSPYLPFGGGRHRCIGEQFAYVQLGTILTTFVYNLRWTIDGYKVPDPDYSSMVVLPTEPAEIIWEKRETCMF
Km: 7.4 µM
